How the values were obtained:
Assay in all cases: Flow cytometry, binding to other RGD-recognizing integrins
alpha IIb beta 3 = target: T1, alpha IIb beta 3 (Homo sapiens, UniProt P05106+P08514)
T1 construct: M21-LIIb cells (αIIbβ3, no αv integrin); expressed in transfected cells; host or cells: M21-LIIb human melanoma cells
Protocol: (§1) Flow cytometry. scFv binding to human tumor cells was analyzed by flow cytometry, initially with cloned scFv phage and then with purified scFv protein. Per sample, 2×10^5 tumor cells were blocked with goat serum and incubated either with scFv phage (2-5×10^10) (1 h at RT) followed by mouse anti-M13 mAb (Serotec) (30 min on ice) and goat FITC-anti mouse (Pierce) (30 min on ice), or with purified scFv (1.25 to 40 μg/ml, routinely 10 to 15 μg/ml) (45 min on ice), followed by mouse anti-FLAG mAb M2 (Sigma) (30 min on ice) and goat FITC-anti mouse. Binding/washing buffer was TBS with or without divalent cations (1 mM Ca^2+, 1 mM Mg^2+, 0.2 mM Mn^2+). Alternatively, tumor cells were washed in 10 ml of plasma (prepared freshly from human blood anticoagulated with 50 nM D-Phe-D-Pro-D-arginyl chloromethyl ketone, PPACK, Felding-Habermann et al., J. Biol. Chem. 271: 5892-5900, 1996), resuspended in plasma and then incubated sequentially, without washing, with purified scFv (45 min on ice), followed by anti-FLAG M2 (30 min on ice) and FITC-anti mouse (30 min on ice). All samples were counter stained with propidium iodide (PI) and analyzed on a Becton-Dickinson FACScan, with live gate set to exclude PI positive cells.
(§2) To generate therapeutic reagents that specifically react with activated αvβ3, a phage display library of single chain antibody fragments (scFv) was exploited. This library was derived from cancer patient blood lymphocyte cDNA libraries and allowed us to test the hypothesis that the expressed immune repertoire contains antibodies that recognize integrin αvβ3, and distinguish between its activated and non-activated forms. Mao et al., Proc. Natl. Acad. Sci. U.S.A 96: 6953-6958, 1999. A subtractive panning approach was designed based on variants of MDA-MB 435 human breast cancer cells. […] Apparently, these cells are selected during metastasis, as variant cells isolated from lung and bone metastases in immune deficient mice express constitutively activated αvβ3. To establish a cell population that uniformly expresses non-activated αvβ3, MDA-MB 435 parental cells were cloned by limiting dilution, and clones tested for αvβ3 functionality. […] A cell line, MDA-MB 435 Lung-Lung, was established which expressed αvβ3 in a constitutively activated form. This variant stems from a lung metastase of an immune deficient mouse whose mammary fat pad had been injected with parental MDA-MB 435 cells. […] After 5 rounds of subtracting the phage library on Parent Combo cells and panning on Lung-Lung cells, scFv clones were analyzed by flow cytometry for their ability to bind integrin αvβ3 on human tumor cells, and to distinguish between the activated and non-activated forms of the receptor (FIG. 1). […]

α5β1 = target: T2, α5β1 (Homo sapiens, UniProt P05556+P08648)
T2 construct: endogenous in cells
T2 sequence (P08648 42-894 limits assumed): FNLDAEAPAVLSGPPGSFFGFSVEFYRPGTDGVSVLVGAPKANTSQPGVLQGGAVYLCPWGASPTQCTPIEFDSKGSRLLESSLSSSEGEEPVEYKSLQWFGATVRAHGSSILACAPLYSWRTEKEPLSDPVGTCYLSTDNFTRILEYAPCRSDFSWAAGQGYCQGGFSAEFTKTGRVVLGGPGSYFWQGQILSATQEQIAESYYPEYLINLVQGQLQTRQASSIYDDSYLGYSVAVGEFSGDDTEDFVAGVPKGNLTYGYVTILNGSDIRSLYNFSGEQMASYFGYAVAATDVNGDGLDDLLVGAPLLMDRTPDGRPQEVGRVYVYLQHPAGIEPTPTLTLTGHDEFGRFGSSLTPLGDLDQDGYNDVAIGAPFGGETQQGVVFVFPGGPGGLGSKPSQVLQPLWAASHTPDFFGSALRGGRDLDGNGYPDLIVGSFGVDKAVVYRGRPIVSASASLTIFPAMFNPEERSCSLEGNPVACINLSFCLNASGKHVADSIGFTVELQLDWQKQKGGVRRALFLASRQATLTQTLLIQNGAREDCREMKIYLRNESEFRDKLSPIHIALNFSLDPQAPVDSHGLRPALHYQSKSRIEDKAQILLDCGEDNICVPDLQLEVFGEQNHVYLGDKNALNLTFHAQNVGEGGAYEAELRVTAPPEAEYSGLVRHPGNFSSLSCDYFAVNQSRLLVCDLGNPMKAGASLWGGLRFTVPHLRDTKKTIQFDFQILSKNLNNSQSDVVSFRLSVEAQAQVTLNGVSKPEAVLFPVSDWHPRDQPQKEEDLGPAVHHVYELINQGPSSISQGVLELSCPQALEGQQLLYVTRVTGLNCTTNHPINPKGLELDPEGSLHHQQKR
T2 sequence (P08648 895-1049 partner limits assumed): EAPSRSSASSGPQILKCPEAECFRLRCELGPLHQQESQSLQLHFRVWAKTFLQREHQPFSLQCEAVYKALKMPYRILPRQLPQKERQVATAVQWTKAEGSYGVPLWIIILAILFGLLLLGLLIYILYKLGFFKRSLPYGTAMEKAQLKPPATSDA
T2 sequence (P05556 21-798): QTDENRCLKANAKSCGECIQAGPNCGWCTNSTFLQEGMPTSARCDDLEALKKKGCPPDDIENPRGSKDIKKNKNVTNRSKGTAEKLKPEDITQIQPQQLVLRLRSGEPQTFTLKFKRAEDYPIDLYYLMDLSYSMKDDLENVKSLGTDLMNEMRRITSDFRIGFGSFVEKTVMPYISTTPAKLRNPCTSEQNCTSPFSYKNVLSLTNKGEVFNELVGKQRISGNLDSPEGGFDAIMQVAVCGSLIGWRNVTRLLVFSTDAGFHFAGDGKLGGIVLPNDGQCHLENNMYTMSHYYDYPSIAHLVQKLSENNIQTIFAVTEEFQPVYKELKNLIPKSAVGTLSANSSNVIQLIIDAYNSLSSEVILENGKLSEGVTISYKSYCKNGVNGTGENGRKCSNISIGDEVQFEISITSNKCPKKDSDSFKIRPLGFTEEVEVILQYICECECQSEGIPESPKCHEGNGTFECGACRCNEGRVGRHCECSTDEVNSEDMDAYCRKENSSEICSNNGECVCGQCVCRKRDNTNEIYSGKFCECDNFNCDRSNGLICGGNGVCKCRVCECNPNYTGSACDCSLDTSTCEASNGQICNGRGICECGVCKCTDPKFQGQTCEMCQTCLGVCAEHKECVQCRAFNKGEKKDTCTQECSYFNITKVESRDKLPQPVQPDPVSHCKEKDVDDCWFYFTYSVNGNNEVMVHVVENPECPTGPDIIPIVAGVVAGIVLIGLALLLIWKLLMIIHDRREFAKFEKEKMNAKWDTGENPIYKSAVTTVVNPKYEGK
Protocol: as §1, §2

αvβ1 = target: T3, αvβ1 (Homo sapiens, UniProt P05556+P06756)
T3 construct: UCLA-P3 lung adenocarcinoma cells (αv integrins, but no αvβ3); endogenous in cells; host or cells: UCLA-P3 human lung adenocarcinoma cells
T3 sequence (P06756 31-889 limits assumed): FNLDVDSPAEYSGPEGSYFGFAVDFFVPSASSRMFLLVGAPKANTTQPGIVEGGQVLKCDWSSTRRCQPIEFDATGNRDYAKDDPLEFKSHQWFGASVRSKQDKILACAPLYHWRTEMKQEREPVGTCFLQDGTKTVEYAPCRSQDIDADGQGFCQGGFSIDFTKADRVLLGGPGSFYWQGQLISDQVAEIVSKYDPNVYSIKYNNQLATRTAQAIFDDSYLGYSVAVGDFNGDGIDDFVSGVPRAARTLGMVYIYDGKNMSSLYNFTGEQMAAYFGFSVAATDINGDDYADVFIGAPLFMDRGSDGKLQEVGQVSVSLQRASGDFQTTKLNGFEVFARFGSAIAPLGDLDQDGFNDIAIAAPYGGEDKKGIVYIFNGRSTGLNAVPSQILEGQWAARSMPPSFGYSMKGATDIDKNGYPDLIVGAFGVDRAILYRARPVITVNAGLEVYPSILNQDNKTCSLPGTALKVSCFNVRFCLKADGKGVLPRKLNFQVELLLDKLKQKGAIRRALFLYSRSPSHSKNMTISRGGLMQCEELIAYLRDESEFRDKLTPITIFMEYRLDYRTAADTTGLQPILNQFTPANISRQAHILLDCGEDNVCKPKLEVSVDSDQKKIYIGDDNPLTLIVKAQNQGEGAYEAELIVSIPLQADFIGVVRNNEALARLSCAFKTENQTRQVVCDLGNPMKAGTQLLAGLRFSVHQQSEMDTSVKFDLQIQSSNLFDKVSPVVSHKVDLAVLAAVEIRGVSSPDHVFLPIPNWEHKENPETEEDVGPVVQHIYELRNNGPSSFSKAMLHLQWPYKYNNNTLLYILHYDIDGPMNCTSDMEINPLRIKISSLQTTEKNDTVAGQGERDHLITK
T3 sequence (P06756 891-1048 partner limits assumed): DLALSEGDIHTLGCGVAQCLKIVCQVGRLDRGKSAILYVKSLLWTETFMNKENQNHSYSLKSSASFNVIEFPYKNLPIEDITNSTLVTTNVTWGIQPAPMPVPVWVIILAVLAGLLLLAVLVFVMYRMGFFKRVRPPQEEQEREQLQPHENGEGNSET
T3 sequence (P05556 21-798): as the sequence (P05556 21-798) above
Protocol: as §1, §2

integrin αvβ5 = target: T4, integrin αvβ5 (Homo sapiens, UniProt P06756+P18084)
T4 construct: UCLA-P3 lung adenocarcinoma cells (αv integrins, but no αvβ3); endogenous in cells; host or cells: UCLA-P3 human lung adenocarcinoma cells
T4 sequence (P06756 31-889 limits assumed): as the sequence (P06756 31-889 limits assumed) above
T4 sequence (P06756 891-1048 partner limits assumed): as the sequence (P06756 891-1048 partner limits assumed) above
T4 sequence (P18084 24-799): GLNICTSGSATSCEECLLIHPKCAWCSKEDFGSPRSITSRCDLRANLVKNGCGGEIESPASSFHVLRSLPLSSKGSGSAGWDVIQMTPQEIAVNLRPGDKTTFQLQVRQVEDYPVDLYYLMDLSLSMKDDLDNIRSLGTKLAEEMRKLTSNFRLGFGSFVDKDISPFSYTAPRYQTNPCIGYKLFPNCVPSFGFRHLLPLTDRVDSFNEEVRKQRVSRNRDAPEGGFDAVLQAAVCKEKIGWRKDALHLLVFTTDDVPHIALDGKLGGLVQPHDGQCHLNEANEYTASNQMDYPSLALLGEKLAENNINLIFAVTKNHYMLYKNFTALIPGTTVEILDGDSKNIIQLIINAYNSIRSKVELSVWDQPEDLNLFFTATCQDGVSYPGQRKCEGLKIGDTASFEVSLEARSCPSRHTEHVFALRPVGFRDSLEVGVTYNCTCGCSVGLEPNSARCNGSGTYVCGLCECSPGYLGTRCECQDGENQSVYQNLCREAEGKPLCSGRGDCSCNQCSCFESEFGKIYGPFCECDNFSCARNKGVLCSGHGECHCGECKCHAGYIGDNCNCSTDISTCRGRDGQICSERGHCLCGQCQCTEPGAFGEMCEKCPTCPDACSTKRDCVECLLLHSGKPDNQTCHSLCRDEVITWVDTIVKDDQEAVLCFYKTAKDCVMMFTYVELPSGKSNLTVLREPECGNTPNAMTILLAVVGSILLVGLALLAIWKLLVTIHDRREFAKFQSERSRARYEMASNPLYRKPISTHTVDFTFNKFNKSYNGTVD
Protocol: as §1, §2

B1: Bc-12: patient derived human scFv antibody against activated αvβ3 with RGD motif in CDR-H3; cDNA ATCC PTA-6303 (protein)
scFv: MAQVQLVQSGAEVKKPGASVKVSCKASGYTFSNYGITWVRQAPGQGLEWMGWINNGNTHYAQKFQGRVTMTTDTSTSTAYMELRSLRSDDTAVYYCARDPRGDDEPYWGQGTLVTVSSGGGGSGGGGSGGGGSEIVLTQSPLSLPVTLGQPASISCRSSQNLVYSDGNTYLSWFQQRPGQSPRRLIYKVSNRDSGVPDRFSGSGSGTDFTLKISRVEAEDIGVYYCMQGTHWPPRTFGQGTKVEIKRGLGGLVDYKDDDDK
do not bind: binding to alpha IIb beta 3 (alpha IIb beta 3) | binding to α5β1 (α5β1) | binding to αvβ1 (αvβ1) | binding to integrin αvβ5 (integrin αvβ5)

— patent US7271245B2, “Methods and compositions for inhibition of metastasis” (The Scripps Research Institute, priority 2004, dated 2007)
